The results in this text go back to PMC6555848, “Structural and functional consequences of the STAT5B^N642H driver mutation” (Nature Communications, 2019).

Substitutions are numbered along the chain they refer to. In names and notes the source's numbering stands.

Series [1] concerns the molecule itself. The series can be described thus: dynamic light scattering; 50 µM protein in 20 mM HEPES pH 7.4, 150 mM NaCl, 2% glycerol; unphosphorylated protein, self-association.
Series [2] concerns the molecule itself. Nature of the series: crystal structure; unphosphorylated core fragment A136-Q703; two molecules per asymmetric unit; STAT5B 3.29 Å, STAT5B^N642H 3.21 Å.

B1: full-length human STAT5B (M1-S787) (natural protein, UniProt P51692 1-787, looked up)
chain: MAVWIQAQQLQGEALHQMQALYGQHFPIEVRHYLSQWIESQAWDSVDLDNPQENIKATQLLEGLVQELQKKAEHQVGEDGFLLKIKLGHYATQLQNTYDRCPMELVRCIRHILYNEQRLVREANNGSSPAGSLADAMSQKHLQINQTFEELRLVTQDTENELKKLQQTQEYFIIQYQESLRIQAQFGPLAQLSPQERLSRETALQQKQVSLEAWLQREAQTLQQYRVELAEKHQKTLQLLRKQQTIILDDELIQWKRRQQLAGNGGPPEGSLDVLQSWCEKLAEIIWQNRQQIRRAEHLCQQLPIPGPVEEMLAEVNATITDIISALVTSTFIIEKQPPQVLKTQTKFAATVRLLVGGKLNVHMNPPQVKATIISEQQAKSLLKNENTRNDYSGEILNNCCVMEYHQATGTLSAHFRNMSLKRIKRSDRRGAESVTEEKFTILFESQFSVGGNELVFQVKTLSLPVVVIVHGSQDNNATATVLWDNAFAEPGRVPFAVPDKVLWPQLCEALNMKFKAEVQSNRGLTKENLVFLAQKLFNNSSSHLEDYSGLSVSWSQFNRENLPGRNYTFWQWFDGVMEVLKKHLKPHWNDGAILGFVNKQQAHDLLINKPDGTFLLRFSDSEIGGITIAWKFDSQERMFWNLMPFTTRDFSIRSLADRLGDLNYLIYVFPDRPKDEVYSKYYTPVPCESATAKAVDGYVKPQIKQVVPEFVNASADAGGGSATYMDQAPSPAVCPQAHYNMYPQNPDSVLDTDGDFDLEDTMDVARRVEELLGRPMDSQWIPHAQS
notes: human STAT5B, full length M1-S787, gene NCBI NM_012448.3, unphosphorylated; also called wild-type STAT5B; wild-type; source: E. coli BL21 (DE3) RILP, purified (Ni-NTA, Ulp1 cleavage, SEC); not shown: His, N-terminal, cleaved; SUMO, N-terminal, cleaved
Turning to B1, the stoichiometry N (in general, a count of units in the complex or per binding partner) in series [1] is 2.

B2: human STAT5B core fragment (A136-Q703) (domain or fragment, UniProt P51692 136-703, looked up)
chain: AMSQKHLQINQTFEELRLVTQDTENELKKLQQTQEYFIIQYQESLRIQAQFGPLAQLSPQERLSRETALQQKQVSLEAWLQREAQTLQQYRVELAEKHQKTLQLLRKQQTIILDDELIQWKRRQQLAGNGGPPEGSLDVLQSWCEKLAEIIWQNRQQIRRAEHLCQQLPIPGPVEEMLAEVNATITDIISALVTSTFIIEKQPPQVLKTQTKFAATVRLLVGGKLNVHMNPPQVKATIISEQQAKSLLKNENTRNDYSGEILNNCCVMEYHQATGTLSAHFRNMSLKRIKRSDRRGAESVTEEKFTILFESQFSVGGNELVFQVKTLSLPVVVIVHGSQDNNATATVLWDNAFAEPGRVPFAVPDKVLWPQLCEALNMKFKAEVQSNRGLTKENLVFLAQKLFNNSSSHLEDYSGLSVSWSQFNRENLPGRNYTFWQWFDGVMEVLKKHLKPHWNDGAILGFVNKQQAHDLLINKPDGTFLLRFSDSEIGGITIAWKFDSQERMFWNLMPFTTRDFSIRSLADRLGDLNYLIYVFPDRPKDEVYSKYYTPVPCESATAKAVDGYVKPQ
notes: human STAT5B core fragment A136-Q703 (printed once as S136-Q703), unphosphorylated; Two molecules per asymmetric unit; described as the unphosphorylated dimer; also called unphosphorylated STAT core fragment; source: E. coli BL21 (DE3) RILP, purified (Ni-NTA, Ulp1 cleavage, SEC); not shown: His, N-terminal, cleaved; SUMO, N-terminal, cleaved
Turning to B2, the binding result in series [2] is given as “binds”.

B3: STAT5B^N642H core fragment (A136-Q703) (domain or fragment, human, UniProt P51692 136-703, looked up)
chain: B2 chain with N507H
notes: human STAT5B core fragment A136-Q703 with the patient-derived mutation N642H; Two molecules per asymmetric unit; described as the unphosphorylated dimer; source: E. coli BL21 (DE3) RILP, purified (Ni-NTA, Ulp1 cleavage, SEC); not shown: His, N-terminal, cleaved; SUMO, N-terminal, cleaved
Consider B3, for which the binding result in series [2] is given as “binds”.
